Laboratory results as given in US20100316634A1 (published 2010).

Key:
[1] = biological target: T1, recombinant human interleukin 5 (IL-5) (human, UniProt P05113 20-134, 125I label (Bolton-Hunter reagent) in the receptor binding inhibition and colony lift assays); assay: optical biosensor
T1 construct: also called human IL-5; hIL-5

[2] = biological target: T1, recombinant human interleukin 5 (IL-5); assay: receptor binding inhibition, 125I-IL-5 on Drosophila membranes with the IL-5R alpha chain
Protocol: Membrane extracts of Drosophila S2 cells expressing the […] of the human IL-5 Receptor (IL-5R) were used to measure the effect of antibody on IL-5 binding to receptor. To prepare the membranes, 10⁹ cells were pelleted at 1000×g at 4° C. for 10 min. The cell pellet was frozen in a dry ice/ethanol bath for 15 min. The pellet was thawed, resuspended in 10 ml PBS at 4° C. and pelleted at 1000×g for 10 min. The cell pellet was washed 2× in PBS and resuspended in 13.5 ml Hypotonic buffer (10 mM Tris pH 7.5, 3 mM MgCl₂, 1 mM dithiothreitol, 1 mM phenylmethylsulfonyl fluoride, 1 uM leupeptin, 1 uM pepstatin A) and incubated on ice for 5 min. The cell suspension was homogenized in a 15 ml Dounce homogenizer and brought to a final concentration of 0.25 M sucrose with a solution of 2.5 M sucrose. Cell debris was removed by a 15 min centrifugation at 1000×g. Cell membranes were pelleted at 100,000×g at 4° C. for 90 min and resuspended in 50 ml of 10 mM Tris pH 7.5, 3 mM MgCl₂, 250 mM sucrose, and stored at −70° C.
Assays with Drosophila membranes containing receptor were performed in MultiscreenGV plates (Millipore Corp., Bedford, Mass.) using Drosophila tissue culture medium M3 (Lindquist et al., Drosophila Inf. Serv., 58: 163 (1982)) containing 25 mM HEPES buffer pH 7.2 and 0.1% BSA (Binding Buffer). Wells were pre-blocked with 0.1 ml binding buffer. […] Filters were dried and counted.

Kd [1]: ~0.09 nM
IC50 [2]: ~7.5 mg/L
B1: recombinant Fab of mAb 2B6 with C-terminal hexa-His on the heavy chain (Fab, V domains shown)
VH: QVQLKESGPGLVAPSQSLSITCTVSGFSLTSYSVHWVRQPPGKGLEWLGVIWASGGTDYNSALMSRLSISKDNSKSQVFLKLNSLQTDDTAMYYCARDPPSSLLRLDYWGQGTTLTVSS
VL: DIVMTQSPSSLSVSAGEKVTMSCKSSQSLLNSGNQKNYLAWYQQKPGQPPKLLIYGASTRESGVPDRFTGSGSGTDFTLSISSVQAEDLAVYYCQNVHSFPFTFGSGTELEIK
notes: Expressed in E. coli from pMKFabGene3H after removal of gene III; N-terminal residues may be set by the PCR primers; also called Fab fragment from 2B6; 2B6 Fab; not shown: murine gamma 1 constant part of the Fd (CH1 to hinge); murine kappa constant region
